Patent US20180057567A1 (Sanofi, published 2018)

How the values were obtained:
recombinant human IL4 = biological target: T1, recombinant human IL4 (human, UniProt P05112 25-153); test: SPR (Biacore)
T1 construct: Bought protein
T1 sequence (looked up): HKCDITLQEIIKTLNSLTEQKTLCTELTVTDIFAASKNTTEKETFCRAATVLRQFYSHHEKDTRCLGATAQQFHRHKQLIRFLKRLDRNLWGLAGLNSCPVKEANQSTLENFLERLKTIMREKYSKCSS

CD3 = biological target: T2, CD3; test: SPR (Biacore), CD3 as analyte
T2 chain 1: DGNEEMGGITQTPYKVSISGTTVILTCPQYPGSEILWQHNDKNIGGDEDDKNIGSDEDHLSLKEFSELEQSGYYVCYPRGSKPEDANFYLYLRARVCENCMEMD
T2 chain 2: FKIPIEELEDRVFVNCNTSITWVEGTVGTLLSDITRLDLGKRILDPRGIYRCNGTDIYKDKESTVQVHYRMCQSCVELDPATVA

CD123 = biological target: T3, CD123 (UniProt P26951 19-305, limits assumed); test: SPR (Biacore), CD123 as analyte
T3 sequence (looked up): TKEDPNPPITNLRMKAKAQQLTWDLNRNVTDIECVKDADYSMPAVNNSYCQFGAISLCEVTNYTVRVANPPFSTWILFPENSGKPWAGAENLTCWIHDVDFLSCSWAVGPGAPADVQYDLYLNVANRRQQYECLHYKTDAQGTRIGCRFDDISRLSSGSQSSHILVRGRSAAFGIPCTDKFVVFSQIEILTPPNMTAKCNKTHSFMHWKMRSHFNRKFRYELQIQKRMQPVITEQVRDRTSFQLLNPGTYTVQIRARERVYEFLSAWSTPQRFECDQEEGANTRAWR

B1: bispecific Fab-like fragment in the CODV bivalent Fab configuration (ECH2), anti-IL13 (huBB13) x anti-IL4 (hu8D4-8) (Example 6) (bispecific antibody)
chain 1: EVQLKESGPGLVAPGGSLSITCTVSGFSLTDSSINWVRQPPGKGLEWLGMIWGDGRIDYADALKSRLSISKDSSKSQVFLEMTSLRTDDTATYYCARDGYFPYAMDFWGQGTSVTVSSSQVQLQQSGPELVKPGASVKISCKASGYSFTSYWIHWIKQRPGQGLEWIGMIDPSDGETRLNQRFQGRATLTVDESTSTAYMQLRSPTSEDSAVYYCTRLKEYGNYDSFYFDVWGAGTLVTVSSRTASTKGPVASRDFTPPTVKILQSSCDGGGHFPPTIQLLCLVSGYTPGTIQITWLEDGQVMDVDLSTASTTQEGELASTQSELTLSQKHWLSDRTYTCQVTYQGHTFEDSTKKCAGSHHHHHHHH
chain 2: DIQMTQSPASLSVSVGDTITLTCHASQNIDVWLSWFQQKPGNIPKLLIYKASNLHTGVPSRFSGSGSGTGFTLTISSLQPEDIATYYCQQAHSYPFTFGGGTKLEIKGQPKAAPDIVLTQSPASLAVSLGQRATISCRASESVDSYGQSYMHWYQQKAGQPPKLLIYLASNLESGVPARFSGSGSRTDFTLTIDPVQAEDAATYYCQQNAEDSRTFGGGTKLEIKTKGPSRTVASRDFTPPTVKILQSSCDGGGHFPPTIQLLCLVSGYTPGTIQITWLEDGQVMDVDLSTASTTQEGELASTQSELTLSQKHWLSDRTYTCQVTYQGHTFEDSTKKCA
notes: An 8x histidine tag was added for purification; also called CH2E-pseudo-CODV antibody
Does B1 bind (recombinant human IL4)?
Result: binds

B2: F(ab')2-like antibody with ECH2 replacing the hinge region, anti-IL4 (hu8D4-8) CH1/kappa Fab and anti-IL13 (huBB13) MCH2 Fab (Example 7) (bispecific antibody)
heavy 1: VQLQQSGPELVKPGASVKISCKASGYSFTSYWIHWIKQRPGQGLEWIGMIDPSDGETRLNQRFQGRATLTVDESTSTAYMQLRSPTSEDSAVYYCTRLKEYGNYDSFYFDVWGAGTLVTVSSASTKGPSVFPLAPSSKSTSGGTAALGCLVKDYFPEPVTVSWNSGALTSGVHTFPAVLQSSGLYSLSSVVTVPSSSLGTQTYICNVNHKPSNTKVDKKVEPKSCGSGSGSVASRDFTPPTVKILQSSCDGGGHFPPTIQLLCLVSGYTPGTIQITWLEDGQVMDVDLSTASTTQEGELASTQSELTLSQKHWLSDRTYTCQVTYQGHTFEDSTKKCA
light 1: DIQMTQSPASLSVSVGDTITLTCHASQNIDVWLSWFQQKPGNIPKLLIYKASNLHTGVPSRFSGSGSGTGFTLTISSLQPEDIATYYCQQAHSYPFTFGGGTKLEIKRTVAAPSVFIFPPSDEQLKSGTASVVCLLNNFYPREAKVQWKVDNALQSGNSQESVTEQDSKDSTYSLSSTLTLSKADYEKHKVYACEVTHQGLSSPVTKSFNRGEC
heavy 2: EVQLKESGPGLVAPGGSLSITCTVSGFSLTDSSINWVRQPPGKGLEWLGMIWGDGRIDYADALKSRLSISKDSSKSQVFLEMTSLRTDDTATYYCARDGYFPYAMDFWGQGTSVTVSSGSGSGSVIAELPPKVSVFVPPRDGFFGNPRKSKLICQATGFSPRQIQVSWLREGKQVGSGVTTDQVQAEAKESGPTTYKVTSTLTIKESDWLGQSMFTCRVDHRGLTFQQQASSMCVPGSGSGSVASRDFTPPTVKILQSSCDGGGHFPPTIQLLCLVSGYTPGTIQITWLEDGQVMDVDLSTASTTQEGELASTQSELTLSQKHWLSDRTYTCQVTYQGHTFEDSTKKCAGSHHHHHHHH
light 2: DIVLTQSPASLAVSLGQRATISCRASESVDSYGQSYMHWYQQKAGQPPKLLIYLASNLESGVPARFSGSGSRTDFTLTIDPVQAEDAATYYCQQNAEDSRTFGGGTKLEIKRTVIAELPPKVSVFVPPRDGFFGNPRKSKLICQATGFSPRQIQVSWLREGKQVGSGVTTDQVQAEAKESGPTTYKVTSTLTIKESDWLGQSMFTCRVDHRGLTFQQQASSMCVP
notes: also called pseudo hinge-CH2E-hybrid-Fab2
Does B2 bind (recombinant human IL4)?
Result: binds

B3: antibody in Bivalent Fab configuration, MCH2 domain of one Fab-like fragment (CD3) linked to a variable domain of the other Fab (CD123) (Example 5) (bispecific antibody)
light 1: DIVMTQTPLSLSVTPGQPASISCKSSQSLVHNNANTYLSWYLQKPGQSPQSLIYKVSNRFSGVPDRFSGSGSGTDFTLKISRVEAEDVGVYYCGQGTQYPFTFGSGTKVEIKRTVIAELPPKVSVFVPPRDGFFGNPRKSKLICQATGFSPRQIQVSWLREGKQVGSGVTTDQVQAEAKESGPTTYKVTSTLTIKESDWLGQSMFTCRVDHRGLTFQQNASSMCVP
heavy: QVQLVESGGGVVQPGRSLRLSCAASGFTFTKAWMHWVRQAPGKQLEWVAQIKDKSNSYATYYADSVKGRFTISRDDSKNTLYLQMNSLRAEDTAVYYCRGVYYALSPFDYWGQGTLVTVSSGGVIAELPPKVSVFVPPRDGFFGNPRKSKLICQATGFSPRQIQVSWLREGKQVGSGVTTDQVQAEAKESGPTTYKVTSTLTIKESDWLGQSMFTCRVDHRGLTFQQNASSMCVPGGGSEVQLVQSGAEVKKPGESLKISCKGSGYSFTDYYMKWARQMPGKGLEWMGDIIPSSGATFYNQKFKGQVTISADKSISTTYLQWSSLKASDTAMYYCARSHLLRASWFAYWGQGTMVTVSSASTKGPSVFPLAPSSKSTSGGTAALGCLVKDYFPEPVTVSWNSGALTSGVHTFPAVLQSSGLYSLSSVVTVPSSSLGTQTYICNVNHKPSNTKVDKKVEPKSCDKTHTHHHHHH
light 2: not shown
notes: also called bispecific bivalent Fab; bivalent bispecific Fab fragment
With B3 as the binder, how does the Kd (CD3) read?
The Kd was 5.71 nM.

And the koff (CD3)?
Its koff is 0.0009 s⁻¹.

And the kon (CD3)?
The kon was 158000 M⁻¹ s⁻¹.

What about the Kd (CD123) of the same binder?
The Kd was 0.0838 nM.

What about the koff (CD123) of the same binder?
Its koff is 3.77e-05 s⁻¹.

What about the kon (CD123) of the same binder?
Its kon is 450000 M⁻¹ s⁻¹.
